The data set deals with T1, HA-tagged VDR (vitamin D receptor), wild type, P11473.
T1 chain: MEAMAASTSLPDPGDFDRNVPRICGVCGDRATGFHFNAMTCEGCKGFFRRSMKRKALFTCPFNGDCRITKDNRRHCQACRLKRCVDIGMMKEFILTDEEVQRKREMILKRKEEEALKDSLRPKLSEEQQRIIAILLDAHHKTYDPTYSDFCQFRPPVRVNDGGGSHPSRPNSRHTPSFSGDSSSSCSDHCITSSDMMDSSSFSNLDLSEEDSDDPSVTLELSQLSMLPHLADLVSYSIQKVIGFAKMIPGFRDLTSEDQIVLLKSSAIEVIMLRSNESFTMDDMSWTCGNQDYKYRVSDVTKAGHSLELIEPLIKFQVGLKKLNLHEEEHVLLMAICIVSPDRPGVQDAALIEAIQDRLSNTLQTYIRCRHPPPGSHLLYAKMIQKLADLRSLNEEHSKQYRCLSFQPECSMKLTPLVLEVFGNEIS

B1: PCAF, wild-type, overexpressed in 293T cells (protein)
chain: MSEAGGAGPGGCGAGAGAGAGPGALPPQPAALPPAPPQGSPCAAAAGGSGACGPATAVAAAGTAEGPGGGGSARIAVKKAQLRSAPRAKKLEKLGVYSACKAEESCKCNGWKNPNPSPTPPRADLQQIIVSLTESCRSCSHALAAHVSHLENVSEEEMNRLLGIVLDVEYLFTCVHKEEDADTKQVYFYLFKLLRKSILQRGKPVVEGSLEKKPPFEKPSIEQGVNNFVQYKFSHLPAKERQTIVELAKMFLNRINYWHLEAPSQRRLRSPNDDISGYKENYTRWLCYCNVPQFCDSLPRYETTQVFGRTLLRSVFTVMRRQLLEQARQEKDKLPLEKRTLILTHFPKFLSMLEEEVYSQNSPIWDQDFLSASSRTSQLGIQTVINPPPVAGTISYNSTSSSLEQPNAGSSSPACKASSGLEANPGEKRKMTDSHVLEEAKKPRVMGDIPMELINEVMSTITDPAAMLGPETNFLSAHSARDEAARLEERRGVIEFHVVGNSLNQKPNKKILMWLVGLQNVFSHQLPRMPKEYITRLVFDPKHKTLALIKDGRVIGGICFRMFPSQGFTEIVFCAVTSNEQVKGYGTHLMNHLKEYHIKHDILNFLTYADEYAIGYFKKQGFSKEIKIPKTKYVGYIKDYEGATLMGCELNPRIPYTEFSVIIKKQKEIIKKLIERKQAQIRKVYPGLSCFKDGVRQIPIESIPGIRETGWKPSGKEKSKEPRDPDQLYSTLKSILQQVKSHQSAWPFMEPVKRTEAPGYYEVIRFPMDLKTMSERLKNRYYVSKKLFMADLQRVFTNCKEYNPPESEYYKCANILEKFFFSKIKEAGLIDK
For the protein B1, the VDR acetylation entry is on record as “VDR acetylation indeed increased when expressed together with PCAF”.
